Measured values: the domain aggregation screens of Martell et al. (2025)

test: soluble fraction after stress (log2 fold change); higher = more stays soluble; pooled small domains, quantitative proteomics; conditions: stress: 50 degC
Summary of the method: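 Each library was heated to 50°C as a stress step. The libraries, made up of small protein domains, were pooled and analysed at high throughput by quantitative proteomics. The reported value is the base-two logarithm of the fold change in each protein's soluble amount after stress, taken as a measure of aggregation propensity. The higher the value, the more protein stays in solution.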

Row | Sequence | soluble fraction (log2)
1 | HMKRNTKAEVLEILLNSGETPVSGERLAENLGISRNAVWKAVTALKEDGYNISAKRNSGYILNKS | -0.0063
2 | HMTKSSAYLSAEKLINKKQYSDAIVKLNDALVTDSKNADIYNYLGFSHRKLGKMEDAAFFYNKALE | 0.219
3 | HMKITININIETLSHHIKQSGVPLGRLQESVPDYNEIVTGNKSPTYQQLEKISKLIRVPLGLLVIESPL | 0.268
4 | HMRTEGNLGAKVRVLRRSQGMTQAELARRLGISPSYLNLIEHNRRSFTADLLVKLAKILPVNLKT | -1.36
5 | HMKQENRLKILRKEKGLTQTKLANEIGVSKRTIIAWENDERQIKPDKAQQLADYFGVKEGYLLGYTNN | 0.132
6 | HMGGGFLVPSLVGKSLEEARSLSELRGFKLEVGDYVISSEYPAGRVTRQNPANGAKGQEGDVIKVEVSS | 0.0353
7 | HMGQLVYPAGVYDVNKSYITDSNSAPYVLDKTDNNYYVLNTQMTWKGTEQDNKTPSQSYEESGGSVWLLFD | -0.235
8 | HMKKHAPSLMRQIRRELKEGKSPESLLSKAKLISDSYYRSLSFYLLIPYLSPNSKQFQEAISLAGKDID | 0.255
9 | HMKISIPQEYFEIYNVLKQRPMHINEISKILKKPVSEISGTISLMEIEGYITKLTTDQYVLKKI | -0.143
10 | HMTRAETPMAFIRAMVEAYTERGLDPNQALRKAQITPSQLKSTNARVTTLQMEWMSETAMREL | 0.0088
11 | HMPVLDETVPAALDGERIDRVVALLADVSRNRAGIAIAAGSVRLDGAVVTQRSRKVRADEELVVDGLER | -0.015
12 | HMSDTGQELHDALNMARRTLTILEEQAAGYTALTIPARLVLELEEKRKDVVRLETQIRSAATGTPG | -0.202
13 | HMGFVTVTEVDTTADLKLARVYVSVLGPEEQWAKSFTALESARGFVWNWLRKHLDLRVTPQLAF | -0.984
14 | HMGDFVIVPDLIGKTIEEFDSELNELNLKYIISDSGNYNPDFKINSVLDQLPNANSKVKGGRKIYITLNAS | -1.37
15 | HMLRIIDYNRVVKDLNGLTPEQLLEKLAESFTVEDKGTEEYRPTELHNFSMYLGGHWYSLTAKPGTYDDND | -0.937
16 | HMEIITIVSDINGKRIDAWLSEKLENYSRSFIQKLIQNENVKVNNNIVKANYKLKNGDAVAVSIPEPV | ≥ 0.62
17 | HMNEIEIHINKLFGKISDSKRKQELMQEITQNLNEKVSDLVSQGQTREQAVKKAIEDFGDIDDLKDELDN | 0.275
18 | HMPDLKIGKDHRLAEYIETKIAEDGYSPGAVLGEIKAKGLEFETEISKPTLYSYIDKGIFLTITNKELPV | 0.105
19 | HMTISPYTKDDFLKGTKPFEDVYAHKADPFVHDRALEQMTIWAKSVGVNGFKKLYKAYIDSLRIKNKEI | 0.0524

Row | Sequence | soluble fraction (log2)
20 | HMAAEPDQQLIKPASDPVLRTMKIEELMKMSEQVKIQMSKAAKNFDYLEAARLRDEHFALENLIKLRS | 0.108
21 | HMAVSPEEQKKRIIELFRNRNEVSFKEIFDLPTKGHFVITLLAVLDLARQQIVIMEQLENEGIIKFTKGA | -0.0715
22 | HMNYYDLLGIPKSATKQQIRKAYRTKAKEFHPDVNGPFNSHMHFLLLKQAYETLMDANMRHVYDMALIS | -1.35
23 | HMSAISSARKEKIIEYLTDHGSARSSEIAEYVDLRPSRVRDYLGELVREDIVVAEGANRNRTYRLK | 0.0293
24 | HMDVALEALDESDGAVRLQFSGALQTYLNDSTTAASLEAISKTFRAFYEAAGRPVDTLEVYAAGEPVT | 0.06
25 | HMQESTILPAQKSAISSLATSAGFSSENLKRYLLQNYGVDLKDLTRSQGAEVIKAFQSGNVSKP | 0.0882
26 | HMDVRKSISDLKALGLSDAAVTVYGTIGNKPVHIDKIVSELGIPVFKVLTALTQLEMKGLVTAMQGRMYVL | -1.01
27 | HMDGKTALQEIVASSGWSPPEYKVSESGPDHDKDFVAYAIVNGVAYPEGHGKSKREAEQVAARIAFEALSK | -0.18
28 | HMGKELTVPDVVGQNYVSAQEKLIAGGFQVEVADSVYDSRYGRGVVVDQNPHKDTRVKPGRLIYVTVNA | -0.0999
29 | HMDGMRASDMVRAALAGAGKTQKELAEHMGWTPQNLSGRLKNNSLTFDELSKALHFAGYEVSMSDANGAG | 0.0567
30 | HMAPLATIHVSSLSQKPFYLYGTFEDRRGNHLFFLEQIMGENKSIPVAMPSSAINPKIHASLTPPKG | -0.32
31 | HMKFYKMIDESDEKIENPEIMIFQIIELVSSTTYSAIINKEPVDVETLKPYLYQTIRTIIINHQS | 0.144
32 | HMNFGEVLQTKRKSMGLTQEDLADKLFVSSETISNWETNKTTPDIDNVIRISQLFDISLNNLLL | -0.0758
33 | HMFMSDDDIRILVKEWLQSQNRKSYQLAEEIGIRPQTFYAQMSVRKISANTKKALSRIIPGL | -0.86
34 | HMQVSDANQLTDVVKSIIKQYPVEVEKYKSGKKALFGFFMGKVMENLKGKSNPKILKNVLTEILD | 0.108
35 | HMTASKSTVSTPEKVVYHIVFPKETKYSIAKKYGITIEELEKRNPEIIPSLSVGQKLVIKGTAPK | -0.00327
36 | HMPVNEEFKRLIDKIKYEFSINQAQISERLGVKSTYLSDMINGRVPYNESMQKKIHEVFHIG | -0.0665
37 | HMLGNIERALEMLQEVAATMDPVDIRLLLSMAQVESVRGNTEAAVKLIDEALVIDPGNERIEQIRLRVL | -0.558
38 | HMSNEEEIEGLVSKVLDNNPEIVERIRSGEDKLISYLVGEVMKQSSSSLNPGIVKEIIVNKTI | 0.161
